Data reported in publication PMC9124873 (BioImpacts : BI, 2021).

Tests used:
[1] = target: heavy chain of ranibizumab; assay: ELISA
[2] = target: light chain of ranibizumab; assay: ELISA

B1: recombinant human VEGF-A protein (ligand)
chain: APMAEGGGQNHHEVVKFMDVYQRSYCHPIETLVDIFQEYPDEIEYIFKPSCVPLMRCGGCCNDEGLECVPTEESNITMQIMRIKPHQGQHIGEMSFLQHNKCECRPKKDRARQENPCGPCSERRKHLFVQDPQTCKCSCKNTDSRCKARQLELNERTCRCDKPRR
- binding result [1]: no binding
- binding result [2]: no binding
